Data reported in PMC12948223, “HSP70 Interactome‐Mediated Proteolysis Targeting Chimera (HSP70‐PROTAC) for Ferroptosis‐Driven Cancer Treatment” (Advanced Science, 2025).

Experiments:
[1] = molecular target: T1, heat shock cognate protein 70 (Hsc70), recombinant (human, UniProt P11142 1-646); experiment: SPR; Biacore 8K; human Hsc70 immobilised on a CM5 chip; GPX4 without compound (binary complex); PBS pH 7.4 running buffer, 30 uL/min, 25 °C, 120 s association and 120 s dissociation; conditions: both partners purified
T1 construct: Hsc70 (HSPA8), human, bought recombinant protein; see the vendor's data sheet for HY-P73915A; also called HSPA8; heat shock cognate 70 protein; source: bought: MedChemExpress, #HY-P73915A (recombinant protein)

[2] = molecular target: T1, heat shock cognate protein 70 (Hsc70), …; experiment: SPR; Biacore 8K; Hsc70 immobilised on a CM5 chip; GDAz-3 at 1 uM preincubated with GPX4 (ternary-complex measurement); PBS pH 7.4, 30 uL/min, 25 °C, 120 s association and 120 s dissociation; conditions: both partners purified

T1 sequence (P11142 whole entry): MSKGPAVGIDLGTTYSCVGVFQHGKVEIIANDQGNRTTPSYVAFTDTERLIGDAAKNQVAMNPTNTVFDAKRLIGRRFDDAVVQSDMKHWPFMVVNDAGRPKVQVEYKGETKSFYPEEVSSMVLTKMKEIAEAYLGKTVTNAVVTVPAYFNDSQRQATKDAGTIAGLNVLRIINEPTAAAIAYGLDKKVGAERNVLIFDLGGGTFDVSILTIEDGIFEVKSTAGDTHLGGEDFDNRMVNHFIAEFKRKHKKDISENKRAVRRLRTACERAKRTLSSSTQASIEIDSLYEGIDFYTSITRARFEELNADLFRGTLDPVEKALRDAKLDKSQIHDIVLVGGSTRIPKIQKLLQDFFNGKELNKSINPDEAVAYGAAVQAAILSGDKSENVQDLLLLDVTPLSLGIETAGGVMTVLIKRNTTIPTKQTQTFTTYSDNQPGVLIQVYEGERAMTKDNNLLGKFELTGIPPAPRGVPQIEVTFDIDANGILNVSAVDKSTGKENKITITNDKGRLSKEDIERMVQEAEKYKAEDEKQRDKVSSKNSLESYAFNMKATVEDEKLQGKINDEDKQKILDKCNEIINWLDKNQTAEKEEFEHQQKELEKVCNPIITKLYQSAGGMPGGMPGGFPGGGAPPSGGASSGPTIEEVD

- Kd [1]: 100 nM
- KD with GDAz-3 [2]: 23.9 nM
B1: glutathione peroxidase 4 (GPX4), recombinant (enzyme)
chain: MCASRDDWRCARSMHEFSAKDIDGHMVNLDKYRGFVCIVTNVASQUGKTEVNYTQLVDLHARYAECGLRILAFPCNQFGKQEPGSNEEIKEFAAGYNVKFDMFSKICVNGDDAHPLWKWMKIQPKGKGILGNAIKWNFTKFLIDKNGCVVKRYGPMEEPLVIEKDLPHYF
modifications: Limits are by convention: cytosolic isoform, starting at precursor Met28 (paper numbering + 27, so Sec46 = U73; matches the start of 6HKQ). The commercial protein's limits and tag are not stated. …
